The values that follow come from article PMC6003574, “Selection of a novel CD19 aptamer for targeted delivery of doxorubicin to lymphoma cells”.

For this series, the target named is CD19 extracellular domain (Homo sapiens, UniProt P15391 20-291). The experiment in a line: flow cytometry on protein-coated beads; PBS, 37 C; PBS, 37 C, 30 min, three PBS washes; bead flow cytometry, random ssDNA pool as background; pH not stated. Conditions: protein: commercial; label: FITC (flow cytometry); Cy3 (confocal); FITC at 5' end in selection primer. For orientation: Flow cytometry measures light scatter and fluorescence of single cells or particles in a stream.
Sequence of CD19 extracellular domain (P15391 20-291): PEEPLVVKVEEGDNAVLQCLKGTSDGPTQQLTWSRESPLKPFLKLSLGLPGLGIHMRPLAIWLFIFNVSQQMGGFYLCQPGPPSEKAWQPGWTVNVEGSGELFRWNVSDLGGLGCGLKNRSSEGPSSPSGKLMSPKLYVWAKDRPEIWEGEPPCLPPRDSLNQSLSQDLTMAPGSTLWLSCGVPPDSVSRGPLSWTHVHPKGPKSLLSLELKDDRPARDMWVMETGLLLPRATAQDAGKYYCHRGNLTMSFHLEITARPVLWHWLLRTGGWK

B1: LC1 (ssDNA)
DNA: TGCGTGTGTAGTGTGTCTGTTCTCCTTTTTTTGGTTGCTGCTCTTAGGGATTTGGGCGG
Turning to B1, the Kd is 85.4 nM.

As usually defined, the Kd is the concentration at which binding is half-saturated. A low value points to tighter binding.
